B1: DLC1 (parent)
chain: AIQGISEKEKAEIEAKEACDWLRA

Variants of: B1
Test: protein stability index of a GFP-peptide fusion (GPS, HEK-293T) (PSI 1-6); higher = more stable
Settings: c terminus: a fixed tail appended
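Note: lentivirally expressed fusions sorted by FACS into six bins by GFP to DsRed ratio, PSI derived from sequencing read proportions per bin multiplied by bin number.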

Protein stability index, by site and new letter:
E14: F 3.78; S 3.93; Y 3.91; D 4.58; I 3.81; L 3.87; R 3.61; Q 4.36; K 3.5; M 3.59; V 3.24; A 4.1; P 4.12; W 2.86; H 3.74; T 4.34; C 4.07; N 3.54; G 3.73
A15: C 4.29; Y 4.33; M 4.24; F 3.57; T 3.76; D 4.4; N 4.24; S 4.81; R 4.18; P 4.51; V 4.53; H 4.33; I 3.91; K 4.61; L 4; G 3.97; E 4.81; W 3.65; Q 4.52
E12: T 4.32; V 4.17; Y 3.53; W 3.26
I13: G 5.08; A 4.7; F 3.94; W 4.26; M 4.78; Q 4.44; N 4.66; D 5.06; T 4.16; R 4.53; V 4.64; P 5.13; L 4.21; H 4.88; K 4.89; E 5.08; S 4.85; Y 4.46; C 5.09
D20: E 4.27; S 4.28; L 3.68; P 3.56; R 3.19; N 4.3; G 3.56; F 3.75; H 3.95; M 3.63; V 3.81; A 3.99; I 3.35; C 3.21; Q 3.91; Y 3.97; W 3.98; K 4.05; T 4.12
E17: N 3.63; K 4.23; H 4.18; D 4.18; P 4.41; G 4.18; F 3.55; Q 3.73; V 3.65; M 3.86; W 3.27; L 3.76; Y 3.79; I 4.12; A 4.14; C 3.92; R 3.7; T 4.34; S 4.17
K16: E 5.21; W 4.09; Q 4.44; D 5.1; H 4.32; M 4.24; A 4.35; N 4.82; P 3.58; V 4.17; I 4.16; R 4.55; T 4.87; F 3.61; C 4.14; S 4.1; L 4.1; Y 3.89; G 4.35
W21: L 5.22; M 5.6; H 5.29; G 5.35; E 5.01; I 4.62; K 5.44; D 5.77; F 4.66; A 5.41; C 5.35
C19: I 4.09; S 4.6; Q 4.77; F 4.47; V 4.77; N 4.89; A 4.79; R 4.45; G 4.43; T 5.12; K 4.63; Y 4.64; L 3.98; M 4.39; E 5.65; H 4.75; D 5.19; P 4.33; W 4.45
A18: T 4.35; S 4.31; N 4.42; K 4.06; M 4.57; G 4.35; F 3.82; W 4.27; D 4.89; I 4.14; H 4.8; Q 4.28; L 4.2; Y 4.33; C 4.43; P 4.88; V 4.26; E 5.02; R 4.56
